Assay results as given in patent US20220389118A1 (Chugai, published 2022).
Read-outs that look alike come from different tables or passages of the source.

T1: human FcγRIIa type H extracellular domain with C-terminal His tag (human, UniProt P12318 34-217)
T1 construct: extracellular domain; also called FcγRIIaH; FcgRIIaH
T1 sequence (looked up): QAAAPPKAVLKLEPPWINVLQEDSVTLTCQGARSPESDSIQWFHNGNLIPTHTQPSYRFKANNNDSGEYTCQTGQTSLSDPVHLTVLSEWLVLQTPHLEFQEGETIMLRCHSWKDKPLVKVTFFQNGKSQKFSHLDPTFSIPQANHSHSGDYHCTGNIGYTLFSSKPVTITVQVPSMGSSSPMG

T2: human FcγRIIa type R (R131) extracellular domain with C-terminal His tag (human, UniProt P12318 34-217)
T2 construct: extracellular domain; also called FcγRIIaR; not shown: His tag at the C terminus
T2 sequence (looked up): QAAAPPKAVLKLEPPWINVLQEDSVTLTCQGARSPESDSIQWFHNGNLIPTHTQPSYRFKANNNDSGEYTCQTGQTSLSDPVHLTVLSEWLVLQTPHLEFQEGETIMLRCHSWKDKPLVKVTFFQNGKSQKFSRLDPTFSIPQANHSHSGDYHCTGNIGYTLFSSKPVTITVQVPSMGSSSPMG

T3: human FcγRIIb extracellular domain with C-terminal His tag (human, UniProt P31994 43-217)
T3 construct: extracellular domain; not shown: His tag at the C terminus
T3 sequence (looked up): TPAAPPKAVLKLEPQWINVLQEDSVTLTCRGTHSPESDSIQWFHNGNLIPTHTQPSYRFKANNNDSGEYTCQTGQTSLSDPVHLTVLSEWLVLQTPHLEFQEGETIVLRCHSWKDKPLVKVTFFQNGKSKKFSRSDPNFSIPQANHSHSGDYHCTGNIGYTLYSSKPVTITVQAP

T4: human FcγRIIa type R (allotype R131) extracellular domain with C-terminal His tag (human, UniProt P12318 34-217)
T4 construct: extracellular domain; also called FcγRIIaR; FcγRIIa R type; not shown: His tag at the C terminus
T4 sequence (looked up): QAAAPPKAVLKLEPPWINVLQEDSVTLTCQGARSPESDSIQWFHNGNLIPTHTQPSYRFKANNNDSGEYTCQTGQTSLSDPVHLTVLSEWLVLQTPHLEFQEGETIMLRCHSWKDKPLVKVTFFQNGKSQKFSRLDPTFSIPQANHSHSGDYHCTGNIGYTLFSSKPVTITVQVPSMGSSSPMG

T5: human FcγRIIa type H (allotype H131) extracellular domain with C-terminal His tag (human, UniProt P12318 34-217)
T5 construct: extracellular domain; also called FcγRIIaH; FcγRIIa H type; not shown: His tag at the C terminus
T5 sequence (looked up): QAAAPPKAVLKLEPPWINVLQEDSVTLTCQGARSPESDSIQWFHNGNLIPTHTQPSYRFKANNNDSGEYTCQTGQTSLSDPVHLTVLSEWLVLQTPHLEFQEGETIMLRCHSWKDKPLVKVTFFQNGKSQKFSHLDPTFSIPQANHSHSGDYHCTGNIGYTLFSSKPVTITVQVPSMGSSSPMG

T6: human FcγRIIb extracellular domain with C-terminal His tag (human, UniProt P31994 43-217)
T6 construct: extracellular domain; not shown: His tag at the C terminus
T6 sequence (looked up): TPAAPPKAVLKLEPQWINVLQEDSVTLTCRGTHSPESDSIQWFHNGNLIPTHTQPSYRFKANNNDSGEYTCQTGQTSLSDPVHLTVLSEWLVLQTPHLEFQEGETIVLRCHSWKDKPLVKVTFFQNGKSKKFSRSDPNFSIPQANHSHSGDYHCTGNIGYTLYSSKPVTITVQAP


How the values were obtained:
[1] = biological target: T1, human FcγRIIa type H extracellular …; assay: SPR (Biacore)
[2] = biological target: T2, human FcγRIIa type R (R131) …; assay: SPR (Biacore), antibody captured, FcγR analyte
[3] = biological target: T3, human FcγRIIb extracellular domain with …; assay: SPR (Biacore), antibody captured, FcγR analyte
[4] = biological target: T4, human FcγRIIa type R (allotype R131) …; assay: SPR (Biacore), antibody captured, FcγR analyte
[5] = biological target: T5, human FcγRIIa type H (allotype H131) …; assay: SPR (Biacore), antibody captured, FcγR analyte
[6] = biological target: T7, human FcγRIIIa type V (allotype V158) extracellular domain with C-terminal His tag (human, UniProt P08637 17-208); assay: SPR (Biacore), antibody captured, FcγR analyte
T7 construct: extracellular domain; also called FcγRIIIaV; FcγRIIIa V type; not shown: His tag at the C terminus
T7 sequence (P08637 17-208 F176V): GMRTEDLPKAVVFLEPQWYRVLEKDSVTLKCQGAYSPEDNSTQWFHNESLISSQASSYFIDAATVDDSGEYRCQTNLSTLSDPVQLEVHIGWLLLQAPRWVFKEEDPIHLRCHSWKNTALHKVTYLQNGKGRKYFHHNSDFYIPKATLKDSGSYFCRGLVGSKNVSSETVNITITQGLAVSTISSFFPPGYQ

[7] = biological target: T6, human FcγRIIb extracellular domain with …; assay: SPR (Biacore), antibody captured, FcγR analyte; remark: listed apart in the source

Binder | Kd [1] [µM] | Kd [2] [µM] | Kd [3] [µM] | Kd [4] [µM] | Kd [5] [µM] | Kd [6] [µM] | Kd [7] [µM]
IL6R-BP089/IL6R-L (antibody, human IgG1, kappa, EU numbering; alterations on IL6R-B3; copies: 2 + 2) heavy: QVQLQESGPGLVKPSETLSLTCAVSGHSISHDHAWSWVRQPPGEGLEWIGFISYSGITNYNPSLQGRVTISRDNSKNTLYLQMNSLRAEDTAVYYCARSLARTTAMDYWGEGTLVTVSSASTKGPSVFPLAPSSKSTSGGTAALGCLVKDYFPEPVTVSWNSGALTSGVHTFPAVLQSSGLYSLSSVVTVPSSSLGTQTYICNVNHKPSNTKVDKKVEPKSCDKTHTCPPCPAPEYLGGDSVFLFPPKPKDTLMISRTPEVTCVVVDVSHEDPEVKFNWYVDGVEVHNAKTKPREEQYNSTYRVVSVLTVLHQDWLNGKEYKCKVSNAALPKPIEKTISKAKGQPREPQVYTLPPSRDELTKNQVSLTCLVKGFYPSDIAVEWESNGQPENNYKTTPPVLDSDGSFFLYSKLTVDKSRWQQGNVFSCSVMHEALHNHYTQESLSLSP light: not shown | 20 |  |  |  |  |  | 
IL6R-BP184/IL6R-L (antibody, human IgG1, kappa, copies: 2 + 2) heavy: QVQLQESGPGLVKPSETLSLTCAVSGHSISHDHAWSWVRQPPGEGLEWIGFISYSGITNYNPSLQGRVTISRDNSKNTLYLQMNSLRAEDTAVYYCARSLARTTAMDYWGEGTLVTVSSASTKGPSVFPLAPSSKSTSGGTAALGCLVKDYFPEPVTVSWNSGALTSGVHTFPAVLQSSGLYSLSSVVTVPSSSLGTQTYICNVNHKPSNTKVDKKVEPKSCDKTHTCPPCPAPDLLGGDSVFLFPPKPKDTLMISRTPEVTCVVVDVSHEDGEVKFNWYVDGVEVHNAKTKPREEQYNSTYRVVSVLTVLHQDWLNGKEYKCKVSNKALPKPIEKTISKAKGQPREPQVYTLPPSRDELTKNQVSLTCLVKGFYPSDIAVEWESNGQPENNYKTTPPVLDSDGSFFLYSKLTVDKSRWQQGNVFSCSVMHEALHNHYTQESLSLSP light: not shown |  |  |  | 2.3 | 30 | 66 | 

Other lines, results leading:

Kd [1] [µM] | Kd [2] [µM] | Kd [3] [µM] | Kd [4] [µM] | Kd [5] [µM] | Kd [6] [µM] | Kd [7] [µM] | Binder
 | 0.57 | 0.017 |  |  |  |  | IL6R-BP545/IL6R-L (antibody, human IgG1, kappa, D356E introduced into IL6R-BP230; copies: 2 + 2) heavy: QVQLQESGPGLVKPSETLSLTCAVSGHSISHDHAWSWVRQPPGEGLEWIGFISYSGITNYNPSLQGRVTISRDNSKNTLYLQMNSLRAEDTAVYYCARSLARTTAMDYWGEGTLVTVSSASTKGPSVFPLAPSSKSTSGGTAALGCLVKDYFPEPVTVSWNSGALTSGVHTFPAVLQSSGLYSLSSVVTVPSSSLGTQTYICNVNHKPSNTKVDKKVEPKSCDKTHTCPPCPAPDLLGDDSVFLFPPKPKDTLMISRTPEVTCVVVDVSDEDGEVKFNWYVDGVEVHNAKTKPREEQDNSTYRVVSVLTVLHQDWLNGKEYKCKVSNKALPRPIEKTISKAKGQPREPQVYTLPPSREELTKNQVSLTCLVKGFYPSDIAVEWESNGQPENNYKTTPPVLDSDGSFFLYSKLTVDKSRWQQGNVFSCSVMHEALHNHYTQESLSLSP light: not shown
 |  |  | 0.91 | 10 | 31 | 0.05 | IL6R-BP195/IL6R-L (antibody, human IgG1, kappa, copies: 2 + 2) heavy: QVQLQESGPGLVKPSETLSLTCAVSGHSISHDHAWSWVRQPPGEGLEWIGFISYSGITNYNPSLQGRVTISRDNSKNTLYLQMNSLRAEDTAVYYCARSLARTTAMDYWGEGTLVTVSSASTKGPSVFPLAPSSKSTSGGTAALGCLVKDYFPEPVTVSWNSGALTSGVHTFPAVLQSSGLYSLSSVVTVPSSSLGTQTYICNVNHKPSNTKVDKKVEPKSCDKTHTCPPCPAPDYLGDDSVFLFPPKPKDTLMISRTPEVTCVVVDVSDEDGEVKFNWYVDGVEVHNAKTKPREEQDNSTYRVVSVLTVLHQDWLNGKEYKCKVSNAALPKPIEKTISKAKGQPREPQVYTLPPSRDELTKNQVSLTCLVKGFYPSDIAVEWESNGQPENNYKTTPPVLDSDGSFFLYSKLTVDKSRWQQGNVFSCSVMHEALHNHYTQESLSLSP light: not shown
